# Laboratory results: IntAct's records for PubMed 20360680
# Numbering of substitutions follows the chain as printed.
# B1: Ras-related protein Rab-6A (Mus musculus), P35279 (parent)
# chain: MSAGGDFGNPLRKFKLVFLGEQSVGKTSLITRFMYDSFDNTYQATIGIDFLSKTMYLEDRTVRLQLWDTAGQERFRSLIPSYIRDSTVAVVVYDITNVNSFQQTTKWIDDVRTERGSDVIIMLVGNKTDLADKRQVSIEEGERKAKELNVMFIETSAKAGYNVKQLFRRVAAALPGMESTQDRSREDMIDIKLEKPQEQPVNEGGCSC
# partner: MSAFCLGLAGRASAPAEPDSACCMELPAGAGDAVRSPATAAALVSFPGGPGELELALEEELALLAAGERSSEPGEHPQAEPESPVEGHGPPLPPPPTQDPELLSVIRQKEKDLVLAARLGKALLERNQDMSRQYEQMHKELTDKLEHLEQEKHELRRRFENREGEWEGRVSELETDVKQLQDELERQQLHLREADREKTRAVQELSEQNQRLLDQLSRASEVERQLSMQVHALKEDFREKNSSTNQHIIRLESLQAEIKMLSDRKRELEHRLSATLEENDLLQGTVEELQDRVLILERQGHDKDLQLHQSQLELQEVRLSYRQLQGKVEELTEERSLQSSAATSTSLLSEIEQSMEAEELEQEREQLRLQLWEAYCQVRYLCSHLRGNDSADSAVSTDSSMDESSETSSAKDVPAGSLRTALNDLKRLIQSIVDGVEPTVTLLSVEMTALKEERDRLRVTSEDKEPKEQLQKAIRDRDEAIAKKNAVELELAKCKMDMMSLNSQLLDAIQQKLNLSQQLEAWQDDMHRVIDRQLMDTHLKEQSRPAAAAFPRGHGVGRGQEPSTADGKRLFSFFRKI
# B2: Ras-related protein Rab-6A (Homo sapiens), P20340 (parent)
# chain: B1 chain with A3T, N202S
# partner: B1 partner
# B3: Protein bicaudal D homolog 2 (Mus musculus), Q921C5 (parent)
# chain: MSAPSEEEEYARLVMEAQPEWLRAEVKRLSHELAETTREKIQAAEYGLAVLEEKHQLKLQFEELEVDYEAIRSEMEQLKEAFGQAHTNHKKVAADGESREESLIQESASKEQYYVRKVLELQTELKQLRNVLTNTQSENERLTSVAQELKEINQNVEIQRGRLRDDIKEYKFREARLLQDYSELEEENISLQKQVSVLRQNQVEFEGLKHEIKRLEEETEYLNSQLEDAIRLKEISERQLEEALETLKTEREQKNNLRKELSHYMSINDSFYTSHLQVSLDGLKFSDDTVTAEPNNDAEALVNGFEHSGLVKSSLDNKTSTPRKDGLAPPSPSLVSDLLSELHISEIQKLKQQLVQMEREKVGLLATLQDTQKQLEQARGTLSEQHEKVNRLTENLSALRRLQAGKERQTSLDNEKDRDSHEDGDYYEVDINGPEILACKYHVAVAEAGELREQLKALRSTHEAREAQHAEEKGRYEAEGQALTEKISLLEKASHQDRELLAHLEKELKKVSDVAGETQGSLNVAQDELVTFSEELANLYHHVCMCNNETPNRVMLDYYREGQGKAGRTSPEGRGRRSPVLLPKGLLATEVGRADGGTGDNSPSPSSSLPSPLSDPRREPMNIYNLIAIIRDQIKHLQAAVDRTTELSRQRIASQELGPAVDKDKEALMEEILKLKSLLSTKREQITTLRTVLKANKQTAEVALANLKSKYENEKAMVTETMMKLRNELKALKEDAATFSSLRAMFATRCDEYITQLDEMQRQLAAAEDEKKTLNSLLRMAIQQKLALTQRLELLELDHEQTRRGRSKAASKAKPASPSL
# B4: Ras-related protein Rab-6A (Mus musculus), P35279 (parent)
# chain: B1 chain
# B5: BICD family-like cargo adapter 1 (Mus musculus), A0JNT9 (parent)
# chain: B1 partner
# Variants of: B1
# Conditions: with bicl1_mouse Bicdl1, A0JNT9
row,effect of a mutation on the interaction,Variant
1,increasing interaction,Q72R

# Variants of: B2
# Conditions: with bicl1_mouse Bicdl1, A0JNT9
row,effect of a mutation on the interaction,Variant
1,disrupting interaction,T27N

# Variants of: B3
# Conditions: with rab6a_mouse Rab6a
row,effect of a mutation on the interaction,Variant
1,disrupting interaction,K785M

# Variants of: B4
# Conditions: with bicd2_mouse Bicd2, Q921C5
row,effect of a mutation on the interaction,Variant
1,disrupting interaction,T27N

# Variants of: B5
# Conditions: with rab6a_mouse Rab6a
row,effect of a mutation on the interaction,Variant
1,disrupting interaction,K512M

# Variants of: B5
# Conditions: with rab6b_mouse Rab6b
row,effect of a mutation on the interaction,Variant
1,disrupting interaction,K512M
